What all share (assay): SPR
For orientation: Surface plasmon resonance follows binding to a sensor surface in real time, without labels.

One assay deals with T1, FcgRIIaH (human, UniProt P12318).
T1 chain: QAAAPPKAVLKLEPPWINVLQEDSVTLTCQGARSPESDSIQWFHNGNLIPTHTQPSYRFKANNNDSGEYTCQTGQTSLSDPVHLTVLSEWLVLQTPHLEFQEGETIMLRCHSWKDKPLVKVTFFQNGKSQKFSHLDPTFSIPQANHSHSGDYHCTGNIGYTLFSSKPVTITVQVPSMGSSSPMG

The next assay deals with T2, FcgRIIb (human, UniProt P31994).
T2 chain: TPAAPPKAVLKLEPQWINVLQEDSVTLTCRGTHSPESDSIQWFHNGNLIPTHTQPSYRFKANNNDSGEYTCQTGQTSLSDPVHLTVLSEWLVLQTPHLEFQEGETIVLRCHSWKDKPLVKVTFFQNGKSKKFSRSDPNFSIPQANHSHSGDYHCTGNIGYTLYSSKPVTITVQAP

Another assay concerns the target T3, FcgRIa (human, UniProt P12314).
T3 chain: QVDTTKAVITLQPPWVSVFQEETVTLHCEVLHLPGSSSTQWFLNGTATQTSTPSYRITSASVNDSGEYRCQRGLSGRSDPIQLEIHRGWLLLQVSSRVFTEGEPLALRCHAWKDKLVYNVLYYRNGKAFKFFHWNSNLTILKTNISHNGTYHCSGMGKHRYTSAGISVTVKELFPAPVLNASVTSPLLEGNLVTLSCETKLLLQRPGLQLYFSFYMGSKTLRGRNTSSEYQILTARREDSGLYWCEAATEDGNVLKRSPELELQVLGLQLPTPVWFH

In the next assay the target is T4, FcgRIIaR (human, UniProt P12318).
T4 chain: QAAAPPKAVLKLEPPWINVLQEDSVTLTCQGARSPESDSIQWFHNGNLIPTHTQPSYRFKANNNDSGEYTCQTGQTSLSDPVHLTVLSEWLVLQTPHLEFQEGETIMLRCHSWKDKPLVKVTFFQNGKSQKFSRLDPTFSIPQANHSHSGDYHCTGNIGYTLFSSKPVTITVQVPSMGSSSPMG

The target in another assay is FcgRIIIaV (human, UniProt P08637).

The values that follow come from patent US11267868 (dated 2022).

Chain of FcgRIIIaV (P08637 17-208 F176V): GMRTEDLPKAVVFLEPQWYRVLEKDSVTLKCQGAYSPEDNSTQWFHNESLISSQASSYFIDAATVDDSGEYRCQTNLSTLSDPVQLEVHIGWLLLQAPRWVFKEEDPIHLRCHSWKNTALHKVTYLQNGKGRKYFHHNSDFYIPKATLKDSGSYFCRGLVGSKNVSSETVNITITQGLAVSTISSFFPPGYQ

B1: IL6R-P729/IL6R-L (antibody)
chain 1: QVQLQESGPGLVKPSETLSLTCAVSGHSISHDHAWSWVRQPPGEGLEWIGFISYSGITNYNPSLQGRVTISRDNSKNTLYLQMNSLRAEDTAVYYCARSLARTTAMDYWGEGTLVTVSSASTKGPSVFPLAPSSKSTSGGTAALGCLVKDYFPEPVTVSWNSGALTSGVHTFPAVLQSSGLYSLSSVVTVPSSSLGTQTYICNVNHKPSNTKVDKKVEPKSCDKTHTCPPCPAPELFGQDSVMLFPPKPKDTLMISRTPEVTCVVVDVSPEDPEVKFNWYVDGVEVHNAKTKPREEQENSTYRVVSVLTVLHQDWLNGKEYKCKVSNKALPAPIEKTISKAKGQPREPQVYTLPPSRDELTKNQVSLTCLVKGFYPSDIAVEWESNGQPENNYKTTPPVLDSDGSFFLYSKLTVDKSRWQQGNVFSCSVMHEALHNHYTQKSLSLSP
chain 2: not shown
As for B1, the Kd (commonly the free concentration of one partner at which half of the binding sites on the other are occupied at equilibrium, for simple one-to-one binding) turned out to be 180 µM in the assay with FcgRIIaH; 4.4 µM with FcgRIIb; 0.66 µM in the assay with FcgRIa; 83 µM with FcgRIIaR; 56 µM with FcgRIIIaV.

B2: IL6R-P604/IL6R-L (antibody)
chain 1: QVQLQESGPGLVKPSETLSLTCAVSGHSISHDHAWSWVRQPPGEGLEWIGFISYSGITNYNPSLQGRVTISRDNSKNTLYLQMNSLRAEDTAVYYCARSLARTTAMDYWGEGTLVTVSSASTKGPSVFPLAPSSKSTSGGTAALGCLVKDYFPEPVTVSWNSGALTSGVHTFPAVLQSSGLYSLSSVVTVPSSSLGTQTYICNVNHKPSNTKVDKKVEPKSCDKTHTCPPCPAPELLGGDSVMLFPPKPKDTLMISRTPEVTCVVVDVSHEDPEVKFNWYVDGVEVHNAKTKPREEQENATYRVVSVLTVLHQDWLNGKEYKCKVSNKALPAPIEKTISKAKGQPREPQVYTLPPSRDELTKNQVSLTCLVKGFYPSDIAVEWESNGQPENNYKTTPPVLDSDGSFFLYSKLTVDKSRWQQGNVFSCSVMHEALHNHYTQKSLSLSP
chain 2: not shown
Consider B2, for which the dissociation constant (Kd) turned out to be 120 µM in the assay with FcgRIIaH, 5.5 µM with FcgRIIb, 64 µM with FcgRIIaR and 40 µM with FcgRIIIaV.

B3: IL6R-P689/IL6R-L (antibody)
chain 1: QVQLQESGPGLVKPSETLSLTCAVSGHSISHDHAWSWVRQPPGEGLEWIGFISYSGITNYNPSLQGRVTISRDNSKNTLYLQMNSLRAEDTAVYYCARSLARTTAMDYWGEGTLVTVSSASTKGPSVFPLAPSSKSTSGGTAALGCLVKDYFPEPVTVSWNSGALTSGVHTFPAVLQSSGLYSLSSVVTVPSSSLGTQTYICNVNHKPSNTKVDKKVEPKSCDKTHTCPPCPAPELLGGDSVMLFPPKPKDTLMISRTPEVTCVVVDVSPEDPEVKFNWYVDGVEVHNAKTKPREEQENSTYRVVSVLTVLHQDWLNGKEYKCKVHNKALPAPIEKTISKAKGQPREPQVYTLPPSRDELTKNQVSLTCLVKGFYPSDIAVEWESNGQPENNYKTTPPVLDSDGSFFLYSKLTVDKSRWQQGNVFSCSVMHEALHNHYTQKSLSLSP
chain 2: not shown
For the molecule B3, the Kd with FcgRIIaH came to 120 µM; in the assay with FcgRIIb, 4.7 µM; in the assay with FcgRIa, 0.028 µM; in the assay with FcgRIIaR, 78 µM; in the assay with FcgRIIIaV, 52 µM.

B4: IL6R-P602/IL6R-L (antibody)
chain 1: QVQLQESGPGLVKPSETLSLTCAVSGHSISHDHAWSWVRQPPGEGLEWIGFISYSGITNYNPSLQGRVTISRDNSKNTLYLQMNSLRAEDTAVYYCARSLARTTAMDYWGEGTLVTVSSASTKGPSVFPLAPSSKSTSGGTAALGCLVKDYFPEPVTVSWNSGALTSGVHTFPAVLQSSGLYSLSSVVTVPSSSLGTQTYICNVNHKPSNTKVDKKVEPKSCDKTHTCPPCPAPELLGGDSVMLFPPKPKDTLMISRTPEVTCVVVDVSHEDPEVKFNWYVDGVEVHNAKTKPREEVENSTYRVVSVLTVLHQDWLNGKEYKCKVSNKALPAPIEKTISKAKGQPREPQVYTLPPSRDELTKNQVSLTCLVKGFYPSDIAVEWESNGQPENNYKTTPPVLDSDGSFFLYSKLTVDKSRWQQGNVFSCSVMHEALHNHYTQKSLSLSP
chain 2: not shown
On to B4, for which the Kd with FcgRIIaH was found to be 100 µM; with FcgRIIb it was 2.4 µM; with FcgRIa, 0.019 µM; with FcgRIIaR it was 44 µM; with FcgRIIIaV, 61 µM.

B5: IL6R-P692/IL6R-L (antibody)
chain 1: QVQLQESGPGLVKPSETLSLTCAVSGHSISHDHAWSWVRQPPGEGLEWIGFISYSGITNYNPSLQGRVTISRDNSKNTLYLQMNSLRAEDTAVYYCARSLARTTAMDYWGEGTLVTVSSASTKGPSVFPLAPSSKSTSGGTAALGCLVKDYFPEPVTVSWNSGALTSGVHTFPAVLQSSGLYSLSSVVTVPSSSLGTQTYICNVNHKPSNTKVDKKVEPKSCDKTHTCPPCPAPELFGQDSVMLFPPKPKDTLMISRTPEVTCVVVDVSHEDPEVKFNWYVDGVEVHNAKTKPREEQENSTYRVVSVLTVLHQDWLNGKEYKCKVSNKALPHPIEKTISKAKGQPREPQVYTLPPSRDELTKNQVSLTCLVKGFYPSDIAVEWESNGQPENNYKTTPPVLDSDGSFFLYSKLTVDKSRWQQGNVFSCSVMHEALHNHYTQKSLSLSP
chain 2: not shown
For the molecule B5, the Kd with FcgRIIaH was determined as 120 µM; with FcgRIIb, 2.7 µM; with FcgRIa, 0.53 µM; in the assay with FcgRIIaR, 56 µM; with FcgRIIIaV it was 57 µM.

B6: IL6R-P654/IL6R-L (antibody)
chain 1: QVQLQESGPGLVKPSETLSLTCAVSGHSISHDHAWSWVRQPPGEGLEWIGFISYSGITNYNPSLQGRVTISRDNSKNTLYLQMNSLRAEDTAVYYCARSLARTTAMDYWGEGTLVTVSSASTKGPSVFPLAPSSKSTSGGTAALGCLVKDYFPEPVTVSWNSGALTSGVHTFPAVLQSSGLYSLSSVVTVPSSSLGTQTYICNVNHKPSNTKVDKKVEPKSCDKTHTCPPCPAPELLGGDSVMLFPPKPKDTLMISRTPEVTCVVVDVSHEDPEVKFNWYVDGVEVHNAKTKPREEQENSTYRVVSVLTVLHQDWLNGKEYKCKVNNKALPAPIEKTISKAKGQPREPQVYTLPPSRDELTKNQVSLTCLVKGFYPSDIAVEWESNGQPENNYKTTPPVLDSDGSFFLYSKLTVDKSRWQQGNVFSCSVMHEALHNHYTQKSLSLSP
chain 2: not shown
In the case of B6, the Kd in the assay with FcgRIIaH was 68 µM; with FcgRIIb, 2.6 µM; with FcgRIa it was 0.016 µM; with FcgRIIaR it was 39 µM; with FcgRIIIaV it was 48 µM.

B7: IL6R-P688/IL6R-L (antibody)
chain 1: QVQLQESGPGLVKPSETLSLTCAVSGHSISHDHAWSWVRQPPGEGLEWIGFISYSGITNYNPSLQGRVTISRDNSKNTLYLQMNSLRAEDTAVYYCARSLARTTAMDYWGEGTLVTVSSASTKGPSVFPLAPSSKSTSGGTAALGCLVKDYFPEPVTVSWNSGALTSGVHTFPAVLQSSGLYSLSSVVTVPSSSLGTQTYICNVNHKPSNTKVDKKVEPKSCDKTHTCPPCPAPELLGGDSVMLFPPKPKDTLMISRTPEVTCVVVDVSPEDPEVKFNWYVDGVEVHNAKTKPREEQENSTYRVVSVLTVLHQDWLNGKEYKCKVNNKALPAPIEKTISKAKGQPREPQVYTLPPSRDELTKNQVSLTCLVKGFYPSDIAVEWESNGQPENNYKTTPPVLDSDGSFFLYSKLTVDKSRWQQGNVFSCSVMHEALHNHYTQKSLSLSP
chain 2: not shown
Turning to B7, the Kd was 110 µM with FcgRIIaH, 4.1 µM with FcgRIIb, 58 µM with FcgRIIaR and 44 µM with FcgRIIIaV.

B8: IL6R-P656/IL6R-L (antibody)
chain 1: QVQLQESGPGLVKPSETLSLTCAVSGHSISHDHAWSWVRQPPGEGLEWIGFISYSGITNYNPSLQGRVTISRDNSKNTLYLQMNSLRAEDTAVYYCARSLARTTAMDYWGEGTLVTVSSASTKGPSVFPLAPSSKSTSGGTAALGCLVKDYFPEPVTVSWNSGALTSGVHTFPAVLQSSGLYSLSSVVTVPSSSLGTQTYICNVNHKPSNTKVDKKVEPKSCDKTHTCPPCPAPELLGGDSVMLFPPKPKDTLMISRTPEVTCVVVDVSHEDPEVKFNWYVDGVEVHNAKTKPREEQENSTYRVVSVLTVLHQDWLNGKEYKCKVSNKALPHPIEKTISKAKGQPREPQVYTLPPSRDELTKNQVSLTCLVKGFYPSDIAVEWESNGQPENNYKTTPPVLDSDGSFFLYSKLTVDKSRWQQGNVFSCSVMHEALHNHYTQKSLSLSP
chain 2: not shown
On to B8, for which the Kd in the assay with FcgRIIaH is 84 µM; with FcgRIIb, 1.9 µM; with FcgRIa, 0.028 µM; with FcgRIIaR, 39 µM; in the assay with FcgRIIIaV, 50 µM.

B9: IL6R-P693/IL6R-L (antibody)
chain 1: QVQLQESGPGLVKPSETLSLTCAVSGHSISHDHAWSWVRQPPGEGLEWIGFISYSGITNYNPSLQGRVTISRDNSKNTLYLQMNSLRAEDTAVYYCARSLARTTAMDYWGEGTLVTVSSASTKGPSVFPLAPSSKSTSGGTAALGCLVKDYFPEPVTVSWNSGALTSGVHTFPAVLQSSGLYSLSSVVTVPSSSLGTQTYICNVNHKPSNTKVDKKVEPKSCDKTHTCPPCPAPELLGGDSVFLFPPKPKDTLMISRTPEVTCVVVDVSHEDPEVKFNWYVDGVEVHNAKTKPREEQENATYRVVSVLTVLHQDWLNGKEYKCKVSNKALPAPIEKTISKAKGQPREPQVYTLPPSRDELTKNQVSLTCLVKGFYPSDIAVEWESNGQPENNYKTTPPVLDSDGSFFLYSKLTVDKSRWQQGNVFSCSVMHEALHNHYTQKSLSLSP
chain 2: not shown
For the molecule B9, the Kd in the assay with FcgRIIaH was 150 µM; with FcgRIIb, 5.6 µM; in the assay with FcgRIa it was 0.0078 µM; with FcgRIIaR, 68 µM; with FcgRIIIaV, 40 µM.
